# Test results taken from publication PMC4066111 (Nature, 2014).
# B1: ycfD from Escherichia coli, full length, wild type (enzyme)
# chain: MEYQLTLNWPDFLERHWQKRPVVLKRGFNNFIDPISPDELAGLAMESEVDSRLVSHQDGKWQVSHGPFESYDHLGETNWSLLVQAVNHWHEPTAALMRPFRELPDWRIDDLMISFSVPGGGVGPHLDQYDVFIIQGTGRRRWRVGEKLQMKQHCPHPDLLQVDPFEAIIDEELEPGDILYIPPGFPHEGYALENAMNYSVGFRAPNTRELISGFADYVLQRELGGNYYSDPDVPPRAHPADVLPQEMDKLREMMLELINQPEHFKQWFGEFISQSRHELDIAPPEPPYQPDEIYDALKQGEVLVRLGGLRVLRIGDDVYANGEKIDSPHRPALDALASNIALTAENFGDALEDPSFLAMLAALVNSGYWFFEG
# B2: Mina53 (MYC-induced nuclear antigen), aa 26-465, wild type (enzyme)
# chain: AAGGPSALNFDSPSSLFESLISPIKTETFFKEFWEQKPLLIQRDDPALATYYGSLFKLTDLKSLCSRGMYYGRDVNVCRCVNGKKKVLNKDGKAHFLQLRKDFDQKRATIQFHQPQRFKDELWRIQEKLECYFGSLVGSNVYITPAGSQGLPPHYDDVEVFILQLEGEKHWRLYHPTVPLAREYSVEAEERIGRPVHEFMLKPGDLLYFPRGTIHQADTPAGLAHSTHVTISTYQNNSWGDFLLDTISGLVFDTAKEDVELRTGIPRQLLLQVESTTVATRRLSGFLRTLADRLEGTKELLSSDMKKDFIMHRLPPYSAGDGAELSTPGGKLPRLDSVVRLQFKDHIVLTVLPDQDQSDEAQEKMVYIYHSLKNSRETHMMGNEEETEFHGLRFPLSHLDALKQIWNSPAISVKDLKLTTDEEKESLVLSLWTECLIQVV
# B3: NO66 (Nucleolar protein 66), aa 183-641, wild type (enzyme)
# chain: SPLRRVLAELNRIPSSRRRAARLFEWLIAPMPPDHFYRRLWEREAVLVRRQDHTYYQGLFSTADLDSMLRNEEVQFGQHLDAARYINGRRETLNPPGRALPAAAWSLYQAGCSLRLLCPQAFSTTVWQFLAVLQEQFGSMAGSNVYLTPPNSQGFAPHYDDIEAFVLQLEGRKLWRVYRPRVPTEELALTSSPNFSQDDLGEPVLQTVLEPGDLLYFPRGFIHQAECQDGVHSLHLTLSTYQRNTWGDFLEAILPLAVQAAMEENVEFRRGLPRDFMDYMGAQHSDSKDPRRTAFMEKVRVLVARLGHFAPVDAVADQRAKDFIHDSLPPVLTDRERALSVYGLPIRWEAGEPVNVGAQLTTETEVHMLQDGIARLVGEGGHLFLYYTVENSRVYHLEEPKCLEIYPQQADAMELLLGSYPEFVRVGDLPCDSVEDQLSLATTLYDKGLLLTKMPLALN
# How the values were obtained:
# [1] = target: B3; assay: cross-linking
# [2] = target: L299C/C300S NO66 (aa 183-641) (human, UniProt Q9H6W3 183-641, L299C | C300S); assay: cross-linking
# Y209C Mina53 (aa 26-465) = Y209C Mina53 (aa 26-465) (human, UniProt Q8IUF8 26-465, Y209C); assay: cross-linking
# crystal structure = target: the molecule itself; assay: crystal structure
Binder,binding result (crystal structure),other results
NPVEHPFGGGNHQHICKPST [rpL8 (205-224) G220C peptide],–,binding result [1]: binds; binding result [2]: binds
RGNAGCLHHHRINFDKYHP [rpL27a (32-50) G37C peptide],–,binding result (Y209C Mina53 (aa 26-465)): binds
B1,binds,–
B2,binds,–
B3,binds,–
